Laboratory results: the supplement of paper PMC12338614
± gives the uncertainty stated by the source.

B1: library; numbered along this chain (parent)
chain: MEVVDPQQLGMFTEGELMSVGMDTFIHRIDSTEVIYQPRRKRAKLIGKYLMGDLLGEGSYGKVKEVLDSETLCRRAVKILKKKKLRRIPNGEANVKKEIQLLRRLRHKNVIQLVDVLYNEEKQKMYMVMEYCVCGMQEMLDSVPEKRFPVCQAHGYFCQLIDGLEYLHSQGIVHKDIKPGNLLLTTGGTLKISDLGVAEALHPFAADDTCRTSQGSPAFQPPEIANGLDTFSGFKVDIWSAGVTLYNITTGLYPFEGDNIYKLFENIGKGSYAIPGDCGPPLSDLLKGMLEYEPAKRFSIRQIRQHSWFRKKHPPAEAPVPIPPSPDTKDRWRSMTVVPYLEDLHGADEDEDLFDIEDDIIYTQDFTVPGQVPEEEASHNGQRRGLPKAVCMNGTEAAQLSTKSRAEGRAPNPARKACSASSKIRRLSACKQQ

Variants of: B1
Assay: STK11 functional score (HeLa growth suppression), rescaled enrichment; synonymous median = 1, nonsense median = 0 (normalised score)
Settings: with HeLa; variant type: missense
In short: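 Functional scores are post/pre-selection log ratios corrected to wild type, rescaled to synonymous and nonsense medians, merged over codons and replicate transfections, and given bootstrapped error. They come from POPCode libraries of codon-optimised STK11 integrated by Bxb1 at an AAVS1 landing pad in HeLa, three regions each transfected three times, with BFP-negative, mCherry-positive integrants sorted by FACS and tiled gDNA amplicons sequenced on NextSeq.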

Variant	STK11 functional score
MEVVDPQQNGMFTEGELMSVGMDTFIHRIDSTEVIYQPRRKRAKLIGKYLMGDLLGEGSYGKVKEVLDSETLCRRAVKILKKKKLRRIPNGEANVKKEIQLLRRLRHKNVIQLVDVLYNEEKQKMYMVMEYCVCGMQEMLDSVPEKRFPVCQAHGYFCQLIDGLEYLHSQGIVHKDIKPGNLLLTTGGTLKISDLGVAEALHPFAADDTCRTSQGSPAFQPPEIANGLDTFSGFKVDIWSAGVTLYNITTGLYPFEGDNIYKLFENIGKGSYAIPGDCGPPLSDLLKGMLEYEPAKRFSIRQIRQHSWFRKKHPPAEAPVPIPPSPDTKDRWRSMTVVPYLEDLHGADEDEDLFDIEDDIIYTQDFTVPGQVPEEEASHNGQRRGLPKAVCMNGTEAAQLSTKSRAEGRAPNPARKACSASSKIRRLSACKQQ [L9N]	1.67 ± 0.14
MEVVDPQQLGMFTEGELMSVGMDTFIHRIDSTEVIYQPRRKRAKLIGKYLMGDLLGEGSYGKVKEVLDSETLCRRAVKILKKKKLRRIPNGEANVKKEIQLLRRLRHKNVIQLVDVLYNEEKQKMYMVMEYCVCGMQEMLDSVPEKRFPVCQAHGYFCQLIDGLEYLHSQGIVHKDIKPGNLLLTTGGTLKISDLGVAEALHPFAADDTCRTSQGSPAFQPPEIANGLDTFSGFKVDIWSAGVTLYNITTGLYPFEGDNIYKLFENIGKGSYAIPGDVGPPLSDLLKGMLEYEPAKRFSIRQIRQHSWFRKKHPPAEAPVPIPPSPDTKDRWRSMTVVPYLEDLHGADEDEDLFDIEDDIIYTQDFTVPGQVPEEEASHNGQRRGLPKAVCMNGTEAAQLSTKSRAEGRAPNPARKACSASSKIRRLSACKQQ [C278V]	0.943 ± 0.11
MEVVDPQQLGMFTEGELMSVGMDTFIHRIDSTEVIYQPRRKRAKLIGKYLMGDLLGEGSYGKVKEVLDSETLCRRAVKILKKKKLRRIPNGEANVKKEIQLLRRLRHKNVIQLVDVLYNEEKQKMYMVMEYCVCGMQEMLDSVPEKRFPVCQAHGYFCQLIDGLEYLHSQGIVHKDIKPGNLLLTTGGTLKISDLGVAEALHPFAADDTCRTSQGSPAFQPPEIANGLDTFSGFKVDIWSAGVTLYNITTGLYPFEGDNIYKLFENIGKGSYAIPGDCGPPLSDLLKGMDEYEPAKRFSIRQIRQHSWFRKKHPPAEAPVPIPPSPDTKDRWRSMTVVPYLEDLHGADEDEDLFDIEDDIIYTQDFTVPGQVPEEEASHNGQRRGLPKAVCMNGTEAAQLSTKSRAEGRAPNPARKACSASSKIRRLSACKQQ [L290D]	-0.275 ± 0.15
MEVVDPQQLGMFTEGELMSVGMDTFIHRIDSTEVIYQPRRKRAKLIGKYLMGDLLGEGSYGKVKEVLDSETLCRRAVKILKKKKLRRIPNGEANVKKEIQLLRRLRHKNVIQLVDVLYNEEKQKMYMVMEYCVCGMQEMLDSVPEKRFPVCQAHGYFCQLIDGLEYLHSQGIVHKDIKPGNLLLTTGGTLKISDLGVAEALHPFAADDTCRTSQGSPAFQPPEIANGLDTFSGFKVDIWSAGVTLYNITTGLYPFEGDNIYKLFENIGKGSYAIPGDCGPPLSDLLKGMLFYEPAKRFSIRQIRQHSWFRKKHPPAEAPVPIPPSPDTKDRWRSMTVVPYLEDLHGADEDEDLFDIEDDIIYTQDFTVPGQVPEEEASHNGQRRGLPKAVCMNGTEAAQLSTKSRAEGRAPNPARKACSASSKIRRLSACKQQ [E291F]	0.825 ± 0.25
MEVVDPQQLGMFTEGELMSVGMDTFIHRIDSTEVIYQPRRKRAKLIGKYLMGDLLGEGSYGKVKEVLDSETLCRRAVKILKKKKLRRIPNGEANVKKEIQLLRRLRHKNVIQLVDVLYNEEKQKMYMVMEYCVCGMQEMLDSVPEKRFPVCQAHGYFCQLIDGLEYLHSQGIVHKDIKPGNLLLTTGGTLKISDLGVAEALHPFAADDTCRTSQGSPAFQPPEIANGLDTFSGFKVDIWSAGVTLYNITTGLYPFEGDNIYKLFENIGKGSYAIPGDCGPPLSDLLKGMLKYEPAKRFSIRQIRQHSWFRKKHPPAEAPVPIPPSPDTKDRWRSMTVVPYLEDLHGADEDEDLFDIEDDIIYTQDFTVPGQVPEEEASHNGQRRGLPKAVCMNGTEAAQLSTKSRAEGRAPNPARKACSASSKIRRLSACKQQ [E291K]	1.28 ± 0.62
MEVVDPQQLGMFTEGELMSVGMDTFIHRIDSTEVIYQPRRKRAKLIGKYLMGDLLGEGSYGKVKEVLDSETLCRRAVKILKKKKLRRIPNGEANVKKEIQLLRRLRHKNVIQLVDVLYNEEKQKMYMVMEYCVCGMQEMLDSVPEKRFPVCQAHGYFCQLIDGLEYLHSQGIVHKDIKPGNLLLTTGGTLKISDLGVAEALHPFAADDTCRTSQGSPAFQPPEIANGLDTFSGFKVDIWSAGVTLYNITTGLYPFEGDNIYKLFENIGKGSYAIPGDCGPPLSDLLKGMLEYEPAKRFSIRQIRQHSWFRKKHPPAEAPVPIPPSPDTKDRWRSMTVVPYLEDLHGADEDEDLFDIEDDIIPTQDFTVPGQVPEEEASHNGQRRGLPKAVCMNGTEAAQLSTKSRAEGRAPNPARKACSASSKIRRLSACKQQ [Y362P]	1.58 ± 0.14
MEVVDPQQLGMFTEGELMSVGMDTFIHRIDSTEVIYQPRRKRAKLIGKYLMGDLLGEGSYGKVKEVLDSETLCRRAVKILKKKKLRRIPNGEANVKKEIQLLRRLRHKNVIQLVDVLYNEEKQNMYMVMEYCVCGMQEMLDSVPEKRFPVCQAHGYFCQLIDGLEYLHSQGIVHKDIKPGNLLLTTGGTLKISDLGVAEALHPFAADDTCRTSQGSPAFQPPEIANGLDTFSGFKVDIWSAGVTLYNITTGLYPFEGDNIYKLFENIGKGSYAIPGDCGPPLSDLLKGMLEYEPAKRFSIRQIRQHSWFRKKHPPAEAPVPIPPSPDTKDRWRSMTVVPYLEDLHGADEDEDLFDIEDDIIYTQDFTVPGQVPEEEASHNGQRRGLPKAVCMNGTEAAQLSTKSRAEGRAPNPARKACSASSKIRRLSACKQQ [K124N]	1.27 ± 0.36
MEVVDPQQLGMFTEGELMSVGMDTFIHRIDSTEVIYQPRRKRAKLIGKYLMGDLLGEGSYGKVKEVLDSETLCRRAVKILKKKKLRRIPNGEANVKKEIQLLRRLRHKNVIQLVDVLYNEEKQKMYMVMEYCVCGMQEMLDSVPEKRFPVCQAHGYFCQLIDGLEYLHSQGIVHKDIKPGNLLLTTGGTLKISDLGVAEALHPFAADDTCRTSQGSPAFQPPEIANGLDTFSGFKVDIWSAGVTLYNITTGLYPFEGDNIYKLFENIGKGSYAIPGDCGPPLSDLLKGMLEYEPAKRFSIRQIRQHSWFRKKHPPAEAPVPIPPSPDTKDRWRSMTVVPYLEDLHGADEDEDLFDIEEDIIYTQDFTVPGQVPEEEASHNGQRRGLPKAVCMNGTEAAQLSTKSRAEGRAPNPARKACSASSKIRRLSACKQQ [D358E]	0.693 ± 0.27
MEVVDPQQLGMFTEGELMSVGMDTFIHRIDSTEVIYQPRRKRAKLIGKYLMGDLLGEGSYGKVKEVLDSETLCRRAVKILKKKKLRRIPNGEANVKKEIQLLRRLRHKNVIQLVDVLYNEEKQKMYMVMEYCVCGMQEMLDSVPEKRFPVCQAHGYFCQLIDGLEYLHSQGIVHKDIKPGNLLLTTGGTLKISDLGVAEALHPFAADDTCRTSQGSPAFQPPEIANGLDTFSGFKVDIWSAGVTLYNITTGLYPFEGDNIYKLFENIGKGSYAWPGDCGPPLSDLLKGMLEYEPAKRFSIRQIRQHSWFRKKHPPAEAPVPIPPSPDTKDRWRSMTVVPYLEDLHGADEDEDLFDIEDDIIYTQDFTVPGQVPEEEASHNGQRRGLPKAVCMNGTEAAQLSTKSRAEGRAPNPARKACSASSKIRRLSACKQQ [I274W]	0.0744 ± 0.12
MEVVDPQQLGMFTEGELMSVGMDTFIHRIDSTEVIYQPRRKRAKLIGKYLMGDLLGEGSYGKVKEVLDSETLCRRAVKILKKKKLRRIPNGEANVKKEIQLLRRLRHKNVIQLVDVLYNEEKQKMYMVMEYCVCGMQEMLDSVPEKRFPVCQAHGYFCQLIDGLEYLHSQGIVHKDIKPGNLLLTTGGTLKISDLGVAEALHPFAADDTCRTSQGSPAFQPPEIANGLDTFSGFKVDIWSAGVTLYNITTGLYPFEGDNIYKLFENIGKGSYAIPGDCGPPLSDLLKGMLEYEPAKRFSIRQIRQHSWFRKKHPPAEAPVPIPPSPDTKDRWRSMTVVPYLEDLHGADEDEDLFDIEDDIIYTQDFTVYGQVPEEEASHNGQRRGLPKAVCMNGTEAAQLSTKSRAEGRAPNPARKACSASSKIRRLSACKQQ [P369Y]	1.41 ± 0.32
MEVVDPQQLGMFTEGELMSVGMDTFIHRIDSTEVIYQPRRKRAKLIGKYLMGDLLGEGSYGKVKEVLDSETLCRRAVKILKKKKLRRIPNGEANVKKEIQLLRRLRHKNVIQLVDVLYNEEKQKMYMVMEYCVCGMQEMLDSVPEKRFPVCQAHGYFCQLIDGLEYLHSQGIVHKDIKPGNLLLTTGGTLKISDLGVAEALHPFAADDTCRTSQGSPAFQPPEIANGLDTFSNFKVDIWSAGVTLYNITTGLYPFEGDNIYKLFENIGKGSYAIPGDCGPPLSDLLKGMLEYEPAKRFSIRQIRQHSWFRKKHPPAEAPVPIPPSPDTKDRWRSMTVVPYLEDLHGADEDEDLFDIEDDIIYTQDFTVPGQVPEEEASHNGQRRGLPKAVCMNGTEAAQLSTKSRAEGRAPNPARKACSASSKIRRLSACKQQ [G233N]	1.19 ± 0.26
MEVVDPQQLGMFTEGELMSVGMDTFIHRIDSTEVIYQPRRKRAKLIGKYLMGDLLGEGSYGKVKEVLDSETLCRRAVKILKKKKLRRIPNGEANVKKEIQLLRRLRHKNVIQLVDVLYNEEKQKMYMVMEYCVCGMQEMLDSVPEKRFPVCQAHGYFCQLIDGLEYLHSQGIVHKDIEPGNLLLTTGGTLKISDLGVAEALHPFAADDTCRTSQGSPAFQPPEIANGLDTFSGFKVDIWSAGVTLYNITTGLYPFEGDNIYKLFENIGKGSYAIPGDCGPPLSDLLKGMLEYEPAKRFSIRQIRQHSWFRKKHPPAEAPVPIPPSPDTKDRWRSMTVVPYLEDLHGADEDEDLFDIEDDIIYTQDFTVPGQVPEEEASHNGQRRGLPKAVCMNGTEAAQLSTKSRAEGRAPNPARKACSASSKIRRLSACKQQ [K178E]	-0.00538 ± 0.11
MEVVDPQQLGMFTEGELMSVGMDTFIHRIDSTEVIYQPRRKRAKLIGKYLMGDLLGEGSYGKVKEVLDSETLCRRAVKILKKKKLRRIPNGEANVKKEIQLLRRLRHKNVIQLVDVLYNEEKQKMYMVMEYCVCGMQEMLDSVPEKRFPVCQAHGYFCQLIDGLEYLHSQGIVHKDIKPGNLLLTTGGTLKISDLGVAEALHPFAADDTCRTSQGSPAFQPPEIANGLDTFQGFKVDIWSAGVTLYNITTGLYPFEGDNIYKLFENIGKGSYAIPGDCGPPLSDLLKGMLEYEPAKRFSIRQIRQHSWFRKKHPPAEAPVPIPPSPDTKDRWRSMTVVPYLEDLHGADEDEDLFDIEDDIIYTQDFTVPGQVPEEEASHNGQRRGLPKAVCMNGTEAAQLSTKSRAEGRAPNPARKACSASSKIRRLSACKQQ [S232Q]	1.03 ± 0.58
MEVVDPQQLGMFTEGELMSVGMDTFIHRIDSTEVIYQPRRKRAKLIGKYLMGDLLGEGSYGKVKEVLDSETLCRRAVKILKKKKLRRIPNGEANVKKEIQLLRRLRHKNVIQLVDVLYNMEKQKMYMVMEYCVCGMQEMLDSVPEKRFPVCQAHGYFCQLIDGLEYLHSQGIVHKDIKPGNLLLTTGGTLKISDLGVAEALHPFAADDTCRTSQGSPAFQPPEIANGLDTFSGFKVDIWSAGVTLYNITTGLYPFEGDNIYKLFENIGKGSYAIPGDCGPPLSDLLKGMLEYEPAKRFSIRQIRQHSWFRKKHPPAEAPVPIPPSPDTKDRWRSMTVVPYLEDLHGADEDEDLFDIEDDIIYTQDFTVPGQVPEEEASHNGQRRGLPKAVCMNGTEAAQLSTKSRAEGRAPNPARKACSASSKIRRLSACKQQ [E120M]	1.11 ± 0.11
